Assay results as given in paper PMC12541693.

What was measured:
Assay in all cases: potentiometry
Conditions in all cases: 298.2 K; 0.1 M KCl; none (unbuffered, KCl background); metal-free (apo) peptide
[1] = target: Tyr12 (position 12, VMVDAYKG---)
[2] = target: Lys13 (position 13, MVDAYKG----)
Asp10 (position 10, …-) = target: Asp10 (position 10, …-)
Asp11 (position 11, …-) = target: Asp11 (position 11, …-)
[3] = target: Tyr13 (position 13, VMVDAYKG---)
[4] = target: Lys14 (position 14, MVDAYKG----)

GWHHQIVMVDAYKG [Pep1 (bis-histidyl minimal SpyTag peptide) (synthetic construct (SpyTag-derived))]
pKa [1]: 9.51(7) | pKa [2]: 10.10(9) | pKa (Asp10 (position 10, …-)): 3.65(4)

GWHHAQIVMVDAYKG [Pep2 (bis-histidyl minimal SpyTag peptide with Ala spacer) (synthetic construct (SpyTag-derived))]
pKa (Asp11 (position 11, …-)): 3.67(5) | pKa [3]: 9.7(1) | pKa [4]: 10.16(5)
